{"source": "the supplement of paper PMC9112550", "about": "“Optimization of the antimicrobial peptide Bac7 by deep mutational scanning” (BMC Biology, 2022);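 note: peptides expressed intracellularly from a pBAD plasmid library in pooled LB shake-flask culture, induced with 0.3% L-arabinose, DNA abundance read by NGS, three biological replicates, DESeq2 with apeglm shrinkage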"}
{"system": "Escherichia coli TOP10", "test": "shrunken log2 fold change of peptide-encoding DNA abundance (4.5 h post-induction vs induction); higher = less antimicrobial activity (less host growth inhibition)", "conditions": "time post-induction: 4.5 h; library: site-saturation at positions 5, 18, 19, 20"}
{"sequence": "RRIRKRPPRLPRPRPRPYNAPRP", "shrunken log2 fold change": -0.171}
{"sequence": "RRIRYRPPRLPRPRPRPNKFPRP", "shrunken log2 fold change": -0.546}
{"sequence": "RRIRPRPPRLPRPRPRPFLWPRP", "shrunken log2 fold change": 0.0275}
{"sequence": "RRIRWRPPRLPRPRPRPCDKPRP", "shrunken log2 fold change": -0.217}
{"sequence": "RRIRMRPPRLPRPRPRPPQLPRP", "shrunken log2 fold change": 0.279}
{"sequence": "RRIRQRPPRLPRPRPRPSAVPRP", "shrunken log2 fold change": -0.126}
{"sequence": "RRIRIRPPRLPRPRPRPAEVPRP", "shrunken log2 fold change": -0.041}
{"sequence": "RRIRERPPRLPRPRPRPEREPRP", "shrunken log2 fold change": 0.414}
{"sequence": "RRIRDRPPRLPRPRPRPIVPPRP", "shrunken log2 fold change": -0.142}
{"sequence": "RRIRSRPPRLPRPRPRPPWHPRP", "shrunken log2 fold change": 0.0809}
{"sequence": "RRIRPRPPRLPRPRPRPVASPRP", "shrunken log2 fold change": 0.00755}
{"sequence": "RRIRHRPPRLPRPRPRPWLDPRP", "shrunken log2 fold change": -0.377}
{"sequence": "RRIRRRPPRLPRPRPRPPAAPRP", "shrunken log2 fold change": 0.947}
{"sequence": "RRIRTRPPRLPRPRPRPPDKPRP", "shrunken log2 fold change": -0.146}
{"sequence": "RRIRFRPPRLPRPRPRPQIRPRP", "shrunken log2 fold change": -0.231}
{"sequence": "RRIRIRPPRLPRPRPRPMCLPRP", "shrunken log2 fold change": -0.425}
{"sequence": "RRIRERPPRLPRPRPRPCRIPRP", "shrunken log2 fold change": -0.0965}
{"sequence": "RRIRFRPPRLPRPRPRPRPTPRP", "shrunken log2 fold change": 0.732}
{"sequence": "RRIRQRPPRLPRPRPRPLIWPRP", "shrunken log2 fold change": 0.855}
{"sequence": "RRIRARPPRLPRPRPRPLNDPRP", "shrunken log2 fold change": 0.0895}
{"sequence": "RRIRVRPPRLPRPRPRPSKGPRP", "shrunken log2 fold change": -0.276}
{"sequence": "RRIRTRPPRLPRPRPRPSSHPRP", "shrunken log2 fold change": -0.669}
{"sequence": "RRIRARPPRLPRPRPRPEEIPRP", "shrunken log2 fold change": 0.289}
{"sequence": "RRIRPRPPRLPRPRPRPEDPPRP", "shrunken log2 fold change": 0.122}
{"sequence": "RRIRFRPPRLPRPRPRPSPLPRP", "shrunken log2 fold change": -0.0981}
{"sequence": "RRIRCRPPRLPRPRPRPVWVPRP", "shrunken log2 fold change": 0.195}
{"sequence": "RRIRDRPPRLPRPRPRPFYTPRP", "shrunken log2 fold change": -0.687}
{"sequence": "RRIRSRPPRLPRPRPRPKMEPRP", "shrunken log2 fold change": -0.0294}
{"sequence": "RRIRERPPRLPRPRPRPKSKPRP", "shrunken log2 fold change": -0.19}
{"sequence": "RRIRQRPPRLPRPRPRPGEAPRP", "shrunken log2 fold change": 0.271}
{"sequence": "RRIRTRPPRLPRPRPRPSHKPRP", "shrunken log2 fold change": -0.421}
{"sequence": "RRIRPRPPRLPRPRPRPEYAPRP", "shrunken log2 fold change": 0.0857}
{"sequence": "RRIRCRPPRLPRPRPRPFQLPRP", "shrunken log2 fold change": -1.02}
{"sequence": "RRIRIRPPRLPRPRPRPSHCPRP", "shrunken log2 fold change": -0.505}
{"sequence": "RRIRCRPPRLPRPRPRPMSQPRP", "shrunken log2 fold change": -0.0148}
{"sequence": "RRIRDRPPRLPRPRPRPCMKPRP", "shrunken log2 fold change": -0.0664}
{"sequence": "RRIRGRPPRLPRPRPRPQWWPRP", "shrunken log2 fold change": 0.53}
{"sequence": "RRIRARPPRLPRPRPRPGQQPRP", "shrunken log2 fold change": 0.209}
{"sequence": "RRIRARPPRLPRPRPRPIGAPRP", "shrunken log2 fold change": 0.716}
{"sequence": "RRIRRRPPRLPRPRPRPFSAPRP", "shrunken log2 fold change": -0.274}
{"sequence": "RRIRSRPPRLPRPRPRPDMMPRP", "shrunken log2 fold change": -0.36}
{"sequence": "RRIRPRPPRLPRPRPRPEERPRP", "shrunken log2 fold change": -0.0232}
{"sequence": "RRIRNRPPRLPRPRPRPSNCPRP", "shrunken log2 fold change": -0.801}
{"sequence": "RRIRYRPPRLPRPRPRPPCRPRP", "shrunken log2 fold change": -0.211}
{"sequence": "RRIRIRPPRLPRPRPRPYLRPRP", "shrunken log2 fold change": -0.086}
{"sequence": "RRIRNRPPRLPRPRPRPAAVPRP", "shrunken log2 fold change": 0.158}
{"sequence": "RRIRCRPPRLPRPRPRPWNRPRP", "shrunken log2 fold change": -0.162}
{"sequence": "RRIRCRPPRLPRPRPRPSWLPRP", "shrunken log2 fold change": -0.547}
{"sequence": "RRIRCRPPRLPRPRPRPCNPPRP", "shrunken log2 fold change": -0.23}
{"sequence": "RRIRHRPPRLPRPRPRPPVIPRP", "shrunken log2 fold change": -0.251}
{"sequence": "RRIRNRPPRLPRPRPRPQDVPRP", "shrunken log2 fold change": -0.0757}
{"sequence": "RRIRMRPPRLPRPRPRPLSFPRP", "shrunken log2 fold change": 0.102}
{"sequence": "RRIRQRPPRLPRPRPRPPLWPRP", "shrunken log2 fold change": 0.494}
{"sequence": "RRIRWRPPRLPRPRPRPNYCPRP", "shrunken log2 fold change": -0.113}
{"sequence": "RRIRRRPPRLPRPRPRPIHCPRP", "shrunken log2 fold change": -0.0105}
{"sequence": "RRIRMRPPRLPRPRPRPLGHPRP", "shrunken log2 fold change": 0.751}
{"sequence": "RRIRLRPPRLPRPRPRPMANPRP", "shrunken log2 fold change": -0.0744}
{"sequence": "RRIRKRPPRLPRPRPRPINAPRP", "shrunken log2 fold change": 0.088}
{"sequence": "RRIRWRPPRLPRPRPRPSTLPRP", "shrunken log2 fold change": -0.253}
{"sequence": "RRIRGRPPRLPRPRPRPDTVPRP", "shrunken log2 fold change": -0.116}
{"sequence": "RRIRTRPPRLPRPRPRPGYYPRP", "shrunken log2 fold change": -0.442}
{"sequence": "RRIRQRPPRLPRPRPRPELAPRP", "shrunken log2 fold change": 0.577}
{"sequence": "RRIRFRPPRLPRPRPRPPGCPRP", "shrunken log2 fold change": 0.453}
{"sequence": "RRIRRRPPRLPRPRPRPMNDPRP", "shrunken log2 fold change": 0.338}
{"sequence": "RRIRMRPPRLPRPRPRPDWGPRP", "shrunken log2 fold change": 0.0473}
{"sequence": "RRIRYRPPRLPRPRPRPVNPPRP", "shrunken log2 fold change": -0.0594}
{"sequence": "RRIRARPPRLPRPRPRPHSIPRP", "shrunken log2 fold change": -0.344}
{"sequence": "RRIRHRPPRLPRPRPRPPDVPRP", "shrunken log2 fold change": 0.113}
{"sequence": "RRIRNRPPRLPRPRPRPRGPPRP", "shrunken log2 fold change": 0.893}
{"sequence": "RRIRWRPPRLPRPRPRPLKVPRP", "shrunken log2 fold change": -0.496}
{"sequence": "RRIRGRPPRLPRPRPRPFRNPRP", "shrunken log2 fold change": 0.0285}
{"sequence": "RRIRTRPPRLPRPRPRPLDIPRP", "shrunken log2 fold change": -1.22}
{"sequence": "RRIRSRPPRLPRPRPRPKYAPRP", "shrunken log2 fold change": -0.323}
{"sequence": "RRIRPRPPRLPRPRPRPYNMPRP", "shrunken log2 fold change": -1.44}
{"sequence": "RRIRHRPPRLPRPRPRPFHPPRP", "shrunken log2 fold change": -0.274}
